This is an account of results in the RNAGym collection of RNA variant scans (doi:10.1093/nar/gkz1192).

The labels stand for the following.
B1: CPEB3 Ribozyme (parent)
chain: UAACAGGGGGCCACAGCAGAAGCGUUCACGUCGCAGCCCCUGUCAGAUUCUGGUGAAUCUGCGAAUUCUGCUGUAUAUCUC

The data set covers variants of B1. Description: self-cleavage, relative activity (ratio to wild type); higher = more cleavage; in vitro, sequencing. In short, it runs like this:
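For each CPEB3 ribozyme variant, relative activity is its cleaved/total read fraction divided by the unmutated ribozyme's. Barcoded error-prone PCR libraries were transcribed by T7 RNA polymerase (5 hours, 37°C) and held in DNase I for 15 min before an EDTA stop, with cleavage occurring throughout. Template-switching reverse transcription and Illumina sequencing were used to read the RNAs. A 5-read minimum applied, and results are the mean of three batches.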
In the case of A2U U72A, the self-cleavage amounted to 0.67.

On to A2U U72C, for which the self-cleavage is 1.11.

As to A2U A13U, the self-cleavage turned out to be 1.08.

For the variant A2U A13G, the self-cleavage came out at 0.84.

In the case of A2G C34U, the self-cleavage came to 0.29.

Regarding A2G C34G, the self-cleavage came to 0.1.

For the variant A2G C4U, the self-cleavage is 1.09.

In the case of A3G A20C, the self-cleavage was 0.75.

Take A3G A20G: the self-cleavage was determined as 0.86.

As for A3G A20U, the self-cleavage came to 0.41.

As to A2G U72C, the self-cleavage worked out at 0.74.

For A2G U72G, the self-cleavage stood at 0.42.

With A2G U72A, the self-cleavage came out at 0.36.

With A3C A64G, the self-cleavage is 1.17.

For A3C U49A, the self-cleavage is 1.1.

Consider A3C U49C, for which the self-cleavage stood at 0.86.

As to A2U U69A, the self-cleavage came to 0.52.

A2G U69A: the self-cleavage worked out at 0.33.

As to A2G U69G, the self-cleavage worked out at 0.46.

With A2G U69C, the self-cleavage is 0.32.

With A2U U67A, the self-cleavage came to 0.49.

Regarding A2U U67C, the self-cleavage came out at 0.39.

Regarding A2U G70C, the self-cleavage is 0.31.

Take A2U C50U: the self-cleavage worked out at 0.79.

Regarding A2G C81U, the self-cleavage amounted to 0.81.

Turning to A3C A21G, the self-cleavage was determined as 0.63.

As to A2U C37A, the self-cleavage was determined as 0.16.

As to A3C U58G, the self-cleavage was determined as 0.25.

Consider A3C U58C, for which the self-cleavage came to 0.4.

For the variant A3C U58A, the self-cleavage stood at 0.5.

For the variant A2U C40G, the self-cleavage came to 0.31.

In the case of A2U C40U, the self-cleavage was determined as 0.89.

With A3G A18C, the self-cleavage is 0.46.

On to A3G A18G, for which the self-cleavage worked out at 0.73.

On to A3G A18U, for which the self-cleavage is 0.44.

As to A3C A15U, the self-cleavage is 0.77.

Turning to A3C A15G, the self-cleavage was 1.03.

Consider A2U G33U, for which the self-cleavage came out at 0.32.

In the case of A2U U60A, the self-cleavage turned out to be 0.56.

A2U U60C: the self-cleavage amounted to 0.47.

For the variant A2G U26G, the self-cleavage was determined as 0.18.

For the variant A2G U26A, the self-cleavage worked out at 0.53.

On to A2G U26C, for which the self-cleavage turned out to be 0.4.

On to A2U A5U, for which the self-cleavage stood at 1.09.

As to A2U A5G, the self-cleavage came to 0.71.

As to A2U A18G, the self-cleavage came to 0.89.

Regarding A2U A18U, the self-cleavage was found to be 0.41.

For the variant A2U A18C, the self-cleavage was found to be 0.28.

In the case of A2U U49A, the self-cleavage came out at 0.72.

In the case of A2G U60A, the self-cleavage is 0.22.

Turning to A2G U60C, the self-cleavage is 0.25.

A3C A77U: the self-cleavage was 1.03.

On to A2G G8A, for which the self-cleavage worked out at 0.3.

A2G G8U: the self-cleavage is 0.11.

With A2G G6U, the self-cleavage amounted to 0.68.

For the variant A2G G6A, the self-cleavage was 0.59.

For the variant A2U A64G, the self-cleavage worked out at 0.83.

As for A2U A64U, the self-cleavage was determined as 0.28.

Regarding A2G C17U, the self-cleavage came out at 0.56.

Regarding A2U U80A, the self-cleavage came out at 1.14.

For A2U U80C, the self-cleavage is 1.09.

Take A2U U80G: the self-cleavage is 1.06.

Consider A2G G63U, for which the self-cleavage stood at 0.62.

On to A2U U58C, for which the self-cleavage was determined as 0.42.

As to A2U U58A, the self-cleavage was 0.35.

For A2G U58C, the self-cleavage came out at 0.25.

Turning to A3G A56U, the self-cleavage amounted to 0.64.

As for A3G A56C, the self-cleavage was determined as 0.8.

With A3G A56G, the self-cleavage was 0.77.

Turning to A3C U60C, the self-cleavage came out at 0.83.

Regarding A2U U66A, the self-cleavage amounted to 0.52.

Take A2U U66C: the self-cleavage was 0.38.

For the variant A2U C39A, the self-cleavage is 0.42.

Take A2G U51G: the self-cleavage was 0.79.

Take A2G U51A: the self-cleavage came out at 0.64.

On to A2G U51C, for which the self-cleavage was 0.34.

Consider A2G A21C, for which the self-cleavage came out at 0.11.

Consider A2G A21G, for which the self-cleavage worked out at 0.42.

With A2G A21U, the self-cleavage is 0.35.

In the case of A2G G22U, the self-cleavage is 0.07.

Turning to A2G G22A, the self-cleavage was 0.22.

For the variant A3C C39U, the self-cleavage turned out to be 1.13.

For A2U C34U, the self-cleavage was 0.24.

Consider A2G U54G, for which the self-cleavage is 0.51.

A2G U54A: the self-cleavage amounted to 0.66.

Consider A2G U54C, for which the self-cleavage was found to be 0.58.

As for A2U A15G, the self-cleavage turned out to be 0.8.

Consider A2U A15U, for which the self-cleavage turned out to be 0.41.

Consider A2U A21G, for which the self-cleavage was found to be 0.56.

For the variant A2U A21U, the self-cleavage worked out at 0.29.

On to A3C A5G, for which the self-cleavage worked out at 0.62.

Regarding A3C A5C, the self-cleavage was 1.23.

A2G G9U: the self-cleavage stood at 0.42.

With A2G G9A, the self-cleavage amounted to 0.28.

For A2G C39A, the self-cleavage is 0.09.

A2U A3U: the self-cleavage is 1.04.

With A2U A3G, the self-cleavage was found to be 0.99.

With A2U A77G, the self-cleavage amounted to 1.04.

Regarding A2U U54A, the self-cleavage was 1.15.

With A2U U54C, the self-cleavage was determined as 1.13.

For A2U U54G, the self-cleavage was 0.77.

Regarding A2G A35G, the self-cleavage was 1.21.

As for A2G A35U, the self-cleavage came out at 0.37.

As for A3C A35U, the self-cleavage was found to be 0.81.

A3C A35G: the self-cleavage is 1.21.

As to A3C C37U, the self-cleavage amounted to 0.6.

For the variant A2U U41C, the self-cleavage stood at 1.07.

Take A2U U41A: the self-cleavage stood at 0.25.

With A2U A57G, the self-cleavage was 0.83.

In the case of A3C A18G, the self-cleavage was 0.64.

With A3C A18U, the self-cleavage amounted to 0.73.

With A2G U31A, the self-cleavage came to 0.43.

In the case of A2G U31C, the self-cleavage was 0.41.

Turning to A2U U51G, the self-cleavage worked out at 1.17.

Consider A2U U51C, for which the self-cleavage turned out to be 1.07.

As for A2U U51A, the self-cleavage was 1.17.

As for A3C U51C, the self-cleavage came to 1.12.

A3C U51A: the self-cleavage was determined as 1.19.

In the case of A2G C71U, the self-cleavage was 0.24.

As for A3C G61C, the self-cleavage worked out at 0.32.

Take A3G A28G: the self-cleavage came out at 0.72.

With A3G A28U, the self-cleavage amounted to 0.89.

Turning to A3G A28C, the self-cleavage came to 0.73.

Take A3C A20G: the self-cleavage is 1.05.

For the variant A2G C12G, the self-cleavage was found to be 0.38.

On to A2G C12U, for which the self-cleavage amounted to 1.04.

Consider A2G G36C, for which the self-cleavage stood at 0.24.

Regarding A2G G36A, the self-cleavage turned out to be 0.16.

Regarding A2G C62A, the self-cleavage turned out to be 0.15.

A2G C62U: the self-cleavage was 0.32.

Regarding A3G A45G, the self-cleavage is 0.78.

In the case of A3G A45U, the self-cleavage was found to be 0.4.

Regarding A2U G10U, the self-cleavage is 0.29.

As to A2U G10A, the self-cleavage came out at 0.26.

For the variant A3C G24A, the self-cleavage worked out at 0.29.

On to A2U G52C, for which the self-cleavage was found to be 1.04.

On to A2U U26G, for which the self-cleavage was determined as 0.5.

As to A2U U26C, the self-cleavage worked out at 0.55.

As to A2U U26A, the self-cleavage worked out at 0.87.

With A2U G8U, the self-cleavage was 0.28.

In the case of A2U G8A, the self-cleavage was found to be 0.27.

Consider A3C G46A, for which the self-cleavage was found to be 0.25.

Consider A2U G24U, for which the self-cleavage came out at 0.34.

In the case of A2U G24A, the self-cleavage was 0.3.

For the variant A2G C79A, the self-cleavage came to 1.01.

Turning to A2G C79U, the self-cleavage is 0.82.

For A3C U26A, the self-cleavage is 1.2.

Regarding A3C U26C, the self-cleavage stood at 0.6.

Take A3C U74A: the self-cleavage worked out at 1.14.

For the variant A2G G61A, the self-cleavage came out at 0.31.

A2G U80G: the self-cleavage turned out to be 0.17.

Regarding A2G U80A, the self-cleavage was found to be 0.77.

For the variant A2G U80C, the self-cleavage was 0.69.

As to A2G G53A, the self-cleavage is 0.66.

As for A2G G53U, the self-cleavage stood at 0.72.

With A2G C68A, the self-cleavage stood at 0.11.

On to A2G C11U, for which the self-cleavage is 0.51.

Take A2G C11G: the self-cleavage was 0.15.

Turning to A2G U74G, the self-cleavage was found to be 1.01.

Take A2G U74C: the self-cleavage came out at 1.12.

For the variant A2G U74A, the self-cleavage was determined as 1.07.

As to A2U C4U, the self-cleavage is 1.15.

For the variant A2U A65U, the self-cleavage turned out to be 0.29.

Regarding A2U A65G, the self-cleavage was determined as 0.26.

With A3G A21U, the self-cleavage worked out at 0.49.

Consider A3G A21G, for which the self-cleavage amounted to 0.73.

In the case of A2G U76A, the self-cleavage was 0.73.
